# Source: US20230158141A1 (YAFEI SHANGHAI BIOLOG MEDICINE SCIENCE AND TECHNOLOGY, published 2023)
# B1: anti-PD-1 antibody 1 light chain S30C (antibody, human IgG4 S228P, kappa, V domains shown)
# VH: QVQLVQSGVEVKKPGASVKVSCKASGYTFTNYYMYWVRQAPGQGLEWMGGINPSNGGTNFNEKFKNRVTLTTDSSTTTAYMELKSLQFDDTAVYYCARRDYRFDMGFDYWGQGTTVTVSS
# VL: EIVLTQSPATLSLSPGERATLSCRASKGVCTSGYSYLHWYQQKPGQAPRLLIYLASYLESGVPARFSGSGSGTDFTLTISSLEPEDFAVYYCQHSRDLPLTFGGGTKVEIKR
# B2: anti-PD-1 antibody 1 light chain S60C (antibody, human IgG4 S228P, kappa, V domains shown)
# VH: QVQLVQSGVEVKKPGASVKVSCKASGYTFTNYYMYWVRQAPGQGLEWMGGINPSNGGTNFNEKFKNRVTLTTDSSTTTAYMELKSLQFDDTAVYYCARRDYRFDMGFDYWGQGTTVTVSS
# VL: EIVLTQSPATLSLSPGERATLSCRASKGVSTSGYSYLHWYQQKPGQAPRLLIYLASYLECGVPARFSGSGSGTDFTLTISSLEPEDFAVYYCQHSRDLPLTFGGGTKVEIKR
# B3: anti-PD-1 antibody 1 light chain S35C (antibody, human IgG4 S228P, kappa, V domains shown)
# VH: QVQLVQSGVEVKKPGASVKVSCKASGYTFTNYYMYWVRQAPGQGLEWMGGINPSNGGTNFNEKFKNRVTLTTDSSTTTAYMELKSLQFDDTAVYYCARRDYRFDMGFDYWGQGTTVTVSS
# VL: EIVLTQSPATLSLSPGERATLSCRASKGVSTSGYCYLHWYQQKPGQAPRLLIYLASYLESGVPARFSGSGSGTDFTLTISSLEPEDFAVYYCQHSRDLPLTFGGGTKVEIKR
# B4: anti-PD-1 antibody 1 light chain S32C (antibody, human IgG4 S228P, kappa, V domains shown)
# VH: QVQLVQSGVEVKKPGASVKVSCKASGYTFTNYYMYWVRQAPGQGLEWMGGINPSNGGTNFNEKFKNRVTLTTDSSTTTAYMELKSLQFDDTAVYYCARRDYRFDMGFDYWGQGTTVTVSS
# VL: EIVLTQSPATLSLSPGERATLSCRASKGVSTCGYSYLHWYQQKPGQAPRLLIYLASYLESGVPARFSGSGSGTDFTLTISSLEPEDFAVYYCQHSRDLPLTFGGGTKVEIKR
# B5: anti-PD-1 antibody 1 light chain S56C (antibody, human IgG4 S228P, kappa, V domains shown)
# VH: QVQLVQSGVEVKKPGASVKVSCKASGYTFTNYYMYWVRQAPGQGLEWMGGINPSNGGTNFNEKFKNRVTLTTDSSTTTAYMELKSLQFDDTAVYYCARRDYRFDMGFDYWGQGTTVTVSS
# VL: EIVLTQSPATLSLSPGERATLSCRASKGVSTSGYSYLHWYQQKPGQAPRLLIYLACYLESGVPARFSGSGSGTDFTLTISSLEPEDFAVYYCQHSRDLPLTFGGGTKVEIKR
# B6: anti-PD-1 antibody 1 light chain S95C (antibody, human IgG4 S228P, kappa, V domains shown)
# VH: QVQLVQSGVEVKKPGASVKVSCKASGYTFTNYYMYWVRQAPGQGLEWMGGINPSNGGTNFNEKFKNRVTLTTDSSTTTAYMELKSLQFDDTAVYYCARRDYRFDMGFDYWGQGTTVTVSS
# VL: EIVLTQSPATLSLSPGERATLSCRASKGVSTSGYSYLHWYQQKPGQAPRLLIYLASYLESGVPARFSGSGSGTDFTLTISSLEPEDFAVYYCQHCRDLPLTFGGGTKVEIKR
# B7: anti-PD-1 antibody 2 light chain A34C (antibody, human IgG4 S228P, kappa, V domains shown)
# VH: QVQLVESGGGVVQPGRSLRLDCKASGITFSNSGMHWVRQAPGKGLEWVAVIWYDGSKRYYADSVKGRFTISRDNSKNTLFLQMNSLRAEDTAVYYCATNDDYWGQGTLVTVSS
# VL: EIVLTQSPATLSLSPGERATLSCRASQSVSSYLCWYQQKPGQAPRLLIYDASNRATGIPARFSGSGSGTDFTLTISSLEPEDFAVYYCQQSSNWPRTFGQGTKVEIKR
# B8: anti-PD-1 antibody 2 light chain S91C (antibody, human IgG4 S228P, kappa, V domains shown)
# VH: QVQLVESGGGVVQPGRSLRLDCKASGITFSNSGMHWVRQAPGKGLEWVAVIWYDGSKRYYADSVKGRFTISRDNSKNTLFLQMNSLRAEDTAVYYCATNDDYWGQGTLVTVSS
# VL: EIVLTQSPATLSLSPGERATLSCRASQSVSSYLAWYQQKPGQAPRLLIYDASNRATGIPARFSGSGSGTDFTLTISSLEPEDFAVYYCQQCSNWPRTFGQGTKVEIKR
# B9: anti-PD-1 antibody 2 light chain S31C (antibody, human IgG4 S228P, kappa, V domains shown)
# VH: QVQLVESGGGVVQPGRSLRLDCKASGITFSNSGMHWVRQAPGKGLEWVAVIWYDGSKRYYADSVKGRFTISRDNSKNTLFLQMNSLRAEDTAVYYCATNDDYWGQGTLVTVSS
# VL: EIVLTQSPATLSLSPGERATLSCRASQSVSCYLAWYQQKPGQAPRLLIYDASNRATGIPARFSGSGSGTDFTLTISSLEPEDFAVYYCQQSSNWPRTFGQGTKVEIKR
# B10: anti-PD-1 antibody 2 light chain S28C (antibody, human IgG4 S228P, kappa, V domains shown)
# VH: QVQLVESGGGVVQPGRSLRLDCKASGITFSNSGMHWVRQAPGKGLEWVAVIWYDGSKRYYADSVKGRFTISRDNSKNTLFLQMNSLRAEDTAVYYCATNDDYWGQGTLVTVSS
# VL: EIVLTQSPATLSLSPGERATLSCRASQCVSSYLAWYQQKPGQAPRLLIYDASNRATGIPARFSGSGSGTDFTLTISSLEPEDFAVYYCQQSSNWPRTFGQGTKVEIKR
# B11: anti-PD-1 antibody 2 light chain G57C (antibody, human IgG4 S228P, kappa, V domains shown)
# VH: QVQLVESGGGVVQPGRSLRLDCKASGITFSNSGMHWVRQAPGKGLEWVAVIWYDGSKRYYADSVKGRFTISRDNSKNTLFLQMNSLRAEDTAVYYCATNDDYWGQGTLVTVSS
# VL: EIVLTQSPATLSLSPGERATLSCRASQSVSSYLAWYQQKPGQAPRLLIYDASNRATCIPARFSGSGSGTDFTLTISSLEPEDFAVYYCQQSSNWPRTFGQGTKVEIKR
# B12: anti-PD-1 antibody 2 light chain S26C (antibody, human IgG4 S228P, kappa, V domains shown)
# VH: QVQLVESGGGVVQPGRSLRLDCKASGITFSNSGMHWVRQAPGKGLEWVAVIWYDGSKRYYADSVKGRFTISRDNSKNTLFLQMNSLRAEDTAVYYCATNDDYWGQGTLVTVSS
# VL: EIVLTQSPATLSLSPGERATLSCRACQSVSSYLAWYQQKPGQAPRLLIYDASNRATGIPARFSGSGSGTDFTLTISSLEPEDFAVYYCQQSSNWPRTFGQGTKVEIKR
# B13: anti-PD-1 antibody 2 light chain S92C (antibody, human IgG4 S228P, kappa, V domains shown)
# VH: QVQLVESGGGVVQPGRSLRLDCKASGITFSNSGMHWVRQAPGKGLEWVAVIWYDGSKRYYADSVKGRFTISRDNSKNTLFLQMNSLRAEDTAVYYCATNDDYWGQGTLVTVSS
# VL: EIVLTQSPATLSLSPGERATLSCRASQSVSSYLAWYQQKPGQAPRLLIYDASNRATGIPARFSGSGSGTDFTLTISSLEPEDFAVYYCQQSCNWPRTFGQGTKVEIKR
# B14: anti-PD-1 antibody 2 light chain S30C (antibody, human IgG4 S228P, kappa, V domains shown)
# VH: QVQLVESGGGVVQPGRSLRLDCKASGITFSNSGMHWVRQAPGKGLEWVAVIWYDGSKRYYADSVKGRFTISRDNSKNTLFLQMNSLRAEDTAVYYCATNDDYWGQGTLVTVSS
# VL: EIVLTQSPATLSLSPGERATLSCRASQSVCSYLAWYQQKPGQAPRLLIYDASNRATGIPARFSGSGSGTDFTLTISSLEPEDFAVYYCQQSSNWPRTFGQGTKVEIKR
# B15: anti-PD-1 antibody 2 light chain S52C (antibody, human IgG4 S228P, kappa, V domains shown)
# VH: QVQLVESGGGVVQPGRSLRLDCKASGITFSNSGMHWVRQAPGKGLEWVAVIWYDGSKRYYADSVKGRFTISRDNSKNTLFLQMNSLRAEDTAVYYCATNDDYWGQGTLVTVSS
# VL: EIVLTQSPATLSLSPGERATLSCRASQSVSSYLAWYQQKPGQAPRLLIYDACNRATGIPARFSGSGSGTDFTLTISSLEPEDFAVYYCQQSSNWPRTFGQGTKVEIKR
# Target: PD-1 (UniProt Q15116 25-167, limits assumed)
# Sequence (Q15116 25-167 limits assumed): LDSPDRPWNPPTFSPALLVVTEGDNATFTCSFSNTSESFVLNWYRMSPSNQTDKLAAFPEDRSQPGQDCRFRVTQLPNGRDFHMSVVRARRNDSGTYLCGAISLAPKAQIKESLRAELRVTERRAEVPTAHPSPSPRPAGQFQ
# Assay: ELISA, OD mutant/OD WT; A=90-110%
row,Binder,binding activity (OD after mutation/OD wild type)
1,B1,90 to 110%
2,B2,90 to 110%
3,B3,90 to 110%
4,B4,90 to 110%
5,B5,90 to 110%
6,B6,90 to 110%
7,B7,90 to 110%
8,B8,90 to 110%
9,B9,90 to 110%
10,B10,90 to 110%
11,B11,90 to 110%
12,B12,90 to 110%
13,B13,90 to 110%
14,B14,90 to 110%
15,B15,90 to 110%
